“And” between values parts separate entries of the source, which are not always exact repeats. Identical values can stand only once.
T1: Thermoplasma acidophilum 20S proteasome β subunit with Twin-Strep-tag (Thermoplasma acidophilum, UniProt P28061 9-211)
T1 construct: 20S proteasome β subunit of Thermoplasma acidophilum; not shown: Twin-Strep-tag, C-terminal, kept
T1 sequence (looked up): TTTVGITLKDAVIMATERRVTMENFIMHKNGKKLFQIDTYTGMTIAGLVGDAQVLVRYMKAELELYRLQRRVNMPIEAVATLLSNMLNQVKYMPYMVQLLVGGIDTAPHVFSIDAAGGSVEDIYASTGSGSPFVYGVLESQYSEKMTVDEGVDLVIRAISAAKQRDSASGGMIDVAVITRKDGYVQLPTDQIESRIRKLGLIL

B1: Thermoplasma acidophilum 20S proteasome α subunit, unmodified (natural protein, UniProt P25156 1-233, looked up)
chain: MQQGQMAYDRAITVFSPDGRLFQVEYAREAVKKGSTALGMKFANGVLLISDKKVRSRLIEQNSIEKIQLIDDYVAAVTSGLVADARVLVDFARISAQQEKVTYGSLVNIENLVKRVADQMQQYTQYGGVRPYGVSLIFAGIDQIGPRLFDCDPAGTINEYKATAIGSGKDAVVSFLEREYKENLPEKEAVTLGIKALKSSLEEGEELKAPEIASITVGNKYRIYDQEEVKKFL
notes: 20S proteasome α subunit of Thermoplasma acidophilum; The results call this α subunit unmodified; the methods say that the constructs were tagged at the C-termini with either a Twin-Strep-tag or a His tag

Columns and labels:
[1] = biological target: Hp of the Hp(2)Ab(1) complex; assay: native MS; tandem MS with increasing collisional energy of the bait-target complex Hp(2)Hb(4)Ab(1), Hb as bait
[2] = biological target: T1, Thermoplasma acidophilum 20S proteasome …; assay: native MS; 20S purified with Strep-Tactin SNAP beads, α and β coded in the same plasmid; 150 mM ammonium acetate; settings: partners not purified
[3] = biological target: the molecule itself; assay: native MS; 20S purified with Strep-Tactin SNAP beads, α and β expressed from two separate plasmids; 150 mM ammonium acetate

Row | Molecule | stoichiometry N [1] | stoichiometry N [2] | stoichiometry N [3]
1 | Hp of the Hp(2)Ab(1) complex | 2 |  | 
2 | B1 |  | 28 subunits in the complex of α and β | 7 and 14

From paper PMC11452662, “Biofunctionalized dissolvable hydrogel microbeads enable efficient characterization of native protein complexes” (Nature Communications, 2024)
